This passage reports dH results from article PMC2615004.

The target in this assay is photosynthetic reaction center from Rhodobacter sphaeroides, native (strain R26) (Rhodobacter sphaeroides) (UniProt P0C0Y8). Briefly: flash absorption spectroscopy.

For the substance “cytochrome c2 from Rhodobacter sphaeroides (from UniProt P0C0X8 1-124) (natural protein)”, the dH is 54 meV.
